Test results from the supplement of paper PMC9170038.

Tested on: MS2 coat protein
Assay: apparent KD of MS2 coat protein; designed switch direction (-1 OFF switch, 1 ON switch): -1; higher = weaker reporter binding
Method in brief: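 Designed RNA switches sharing common flanks were transcribed on Illumina chips by stalled E. coli RNA polymerase. They were titrated with SNAP-549-labelled MS2 coat protein, from 0.7 or 1.5 nM doubling to 3 µM, in Tris-HCl pH 7.5 buffer with KCl, MgCl2, BSA, DTT, tRNA and Tween-20. Titrations ran without input, with 200 uM small-molecule ligand, or with an oligonucleotide input. The apparent KD of each design is the median over its clusters, after curve-fitting of normalised cluster fluorescence.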

[1] = input ligand: microRNA oligo, concentration not stated
[2] = Eterna round: R95, input ligand: microRNA oligo, concentration not stated
[3] = Eterna round: R95, input ligand: FMN 200 uM
[4] = Eterna round: R95, input ligand: none

GUCUACCAGCUAGGAUAUGCAGUACAGUAAAAUGUAGAAGGAGCACGAUCCAGACAUGAGGAUCACCCAUGUGGGCGGUAGGCA [Vebiena] (Eterna round: R96, puzzle: Exclusion NG 1)
apparent KD of MS2 coat protein (input ligand: FMN 200 uM): 19.8 nM
apparent KD of MS2 coat protein [1]: 9.52 nM
apparent KD of MS2 coat protein (input ligand: none): 17.3 nM

GUCUUCAUGACAUGAGGAUCACCCAUGUGUUAUUUGUUAACUAAGGAUAUAUUUUUAAUGUUGAGAUAGAAGGUAGUUUCGGUC [JR_ExcNG3_Sub090] (Eterna round: R96, puzzle: Exclusion NG 3)
apparent KD of MS2 coat protein (input ligand: FMN 200 uM): 161 nM
apparent KD of MS2 coat protein [1]: 93 nM
apparent KD of MS2 coat protein (input ligand: none): 149 nM

GUGAGACAUGAGGAUCACCCAUGUCAGGAUAUGAUACUAUGUACUUCGGUACAUAGUAUCAGAAGGGACAGUGA [Ex1-3: 5] (puzzle: Exclusion 1)
apparent KD of MS2 coat protein [2]: 42.5 nM

GUGAUAUAGUUAGUGGCCUACAUGAGGAUCACCCAUGUGAGGGAAAUGUUGAGGCGAAAGUUGUGUGCUCGUCUGUA [JR_SV3TOV1_Sub039] (puzzle: Sensor v3, turn-off variant 1)
apparent KD of MS2 coat protein [3]: 23.6 nM
apparent KD of MS2 coat protein [2]: 38.9 nM
apparent KD of MS2 coat protein [4]: 26.5 nM

GUGAUCUAUCAUGGAAUAAACAUGAGGAUCACCCAUGUAGACAAGUUUUUUGCUCGUCUUAUAAUAAGAUAGAUCAC [Antenna 14 - Jieux - Sensor, turn-off variant 1] (Eterna round: R97, puzzle: Sensor, turn-off variant 1)
apparent KD of MS2 coat protein (input ligand: FMN 200 uM): 15.5 nM
apparent KD of MS2 coat protein (input ligand: none): 14.2 nM

GUGAUCUAUCAUGUAAUGAACAUGAGGAUCACCCAUGUAGGCAGGUUUUUUGCUCGUCACAUAAUAAGAUAGAUCAC [Antenna 20 - Jieux - Sensor, turn-off variant 1] (Eterna round: R97, puzzle: Sensor, turn-off variant 1)
apparent KD of MS2 coat protein (input ligand: FMN 200 uM): 18.6 nM
apparent KD of MS2 coat protein (input ligand: none): 24.2 nM

GUGGAGUAAGGAUAUACAUGAGGAUCACCCAUGUAAGGGAAGGUGAUGGGAGUAGAUAGUAGAAGGUACGAGGA [JR_Exclu3_Sub067] (puzzle: Exclusion 3)
apparent KD of MS2 coat protein [3]: 58.3 nM
apparent KD of MS2 coat protein [2]: 97.2 nM
apparent KD of MS2 coat protein [4]: 100 nM

GUGGCACAUGAGGAUCACCCAUGUCAGGAUAUCGCGUGGUUUUUUGCGGCCGCGCGCGCGAGAAGGGACGUCUU (puzzle: Exclusion 1)
apparent KD of MS2 coat protein [2]: 31.1 nM

GUGGCACUAGUGAGGAUAUGGAAAUUGACAGAUAUCCAGAAGGCACAUGAGGAUCACCCAUGUCGAAUCCAGCA [Eternabot (L1) Solution 81] (Eterna round: R97, puzzle: Brourd's mod of Exclusion 4)
apparent KD of MS2 coat protein (input ligand: FMN 200 uM): 36.9 nM
apparent KD of MS2 coat protein (input ligand: none): 22.8 nM

GUGUAACAAGGAUAUACAUGAGGAUCACCCAUGUGAAUAAGAUUGAAUAAGAUAAAGUGUAGAAGGUGUAGUGU [Excluse me!!! 9 - Jieux - Exclusion 3] (puzzle: Exclusion 3)
apparent KD of MS2 coat protein [3]: 32.5 nM
apparent KD of MS2 coat protein [2]: 31.6 nM
apparent KD of MS2 coat protein [4]: 37.1 nM

GUGUAACUACACGGGCUCAACAUGAGGAUCACCCAUGUCAUACACGCAAGCUCUUUGCUUGUCUUAUCUGUCCGUGA [Erriusti] (puzzle: Sensor v3, turn-off variant 1)
apparent KD of MS2 coat protein [3]: 16.8 nM
apparent KD of MS2 coat protein [2]: 16.6 nM
apparent KD of MS2 coat protein [4]: 14.5 nM

GUGUAACUACACGGGCUCAACAUGAGGAUCACCCAUGUCAUACACGCAAGCUUUUUGCUUGUCUUAUCUGUCCGUGU [Cegeesre] (puzzle: Sensor v3, turn-off variant 1)
apparent KD of MS2 coat protein [3]: 12.4 nM
apparent KD of MS2 coat protein [2]: 12.2 nM
apparent KD of MS2 coat protein [4]: 11.5 nM

GUGUACAGAGGAUAUACUUAUGGAGUCACGAAAGUGGCUUCACAUGAGGAUCACCCAUGUAGAAGGCUGUACAC [Dot plot directed v11] (puzzle: Exclusion 2)
apparent KD of MS2 coat protein [2]: 23.7 nM

GUGUACCGAGGAUAUGCUGGAAUCUAGCGAAGCUAGGUUCCACAUGAGGAUCACCCAUGUAGAAGGUGGUACAC [Dot plot directed A v7] (puzzle: Exclusion 2)
apparent KD of MS2 coat protein [2]: 55.5 nM

GUGUAGAGAGGAUAUACAUGAGGAUCACCCAUGUGAAUAAGAUAGAAUAAGAUAAAGUGUAGAAGGUUUAGUGU [Excluse me!!! 18 - Jieux - Exclusion 3] (puzzle: Exclusion 3)
apparent KD of MS2 coat protein [2]: 38.4 nM

GUGUAGAUAGGAUAUACAUGAGGAUCACCCAUGUGAAUAAGAUAGAAUAAGAUAAAGUGUAGAAGGGUUAGUGU [Excluse me!!! 19 - Jieux - Exclusion 3] (puzzle: Exclusion 3)
apparent KD of MS2 coat protein [3]: 34.3 nM
apparent KD of MS2 coat protein [2]: 30.2 nM
apparent KD of MS2 coat protein [4]: 39.9 nM

GUGUUGUCAGGAUAUCUUACAUAACUAUCGUUGUUACCAUUGGAGAAGGGACAUGAGGAUCACCCAUGUUUUCG [tap-tap-tappy50] (Eterna round: R97, puzzle: Exclusion 4)
apparent KD of MS2 coat protein (input ligand: FMN 200 uM): 23.9 nM
apparent KD of MS2 coat protein (input ligand: none): 24.6 nM

GUUAACGUAGGAUAUUAGUACAUACACAUGAGGAUCACCCAUGUUUAGUGGGUCUAAGAAUAAGAAGGGCGAAGAA [EX5 #25] (Eterna round: R97, puzzle: Exclusion 5)
apparent KD of MS2 coat protein (input ligand: FMN 200 uM): 117 nM
apparent KD of MS2 coat protein (input ligand: none): 130 nM

GUUAAGGUAGGAUAUACGAUAAUAGAGGGUAGAUAUAUAACACAUGAGGAUCACCCAUGUAGAAGGACCAAUUG [Mat - Exclusion 2 - Mod of my Tesla design - D58] (puzzle: Exclusion 2)
apparent KD of MS2 coat protein [3]: 91.3 nM
apparent KD of MS2 coat protein [2]: 41.2 nM
apparent KD of MS2 coat protein [4]: 36.8 nM

GUUAAGGUAGGAUAUACGAUAAUAUAGGGUAGAUAUAGAACACAUGAGGAUCACCCAUGUAGAAGGACCAAUUG [Mat - Exclusion 2 - Mod of my Tesla design - D54] (puzzle: Exclusion 2)
apparent KD of MS2 coat protein [2]: 28.6 nM

GUUACACAUGAGGAUCACCCAUGUAAGGAUAUGCUGCGGUCGCGAAAACGUGACUGCAGCAGAAGGUACACAUG [Mat - Mod of JL D61] (puzzle: Exclusion 1)
apparent KD of MS2 coat protein [2]: 135 nM

GUUACACAUGAGGAUCACCCAUGUAAGGAUAUGCUGCGGUCGCGCUGACGUGACUGCAGCAGAAGGUACAAUUG (puzzle: Exclusion 1)
apparent KD of MS2 coat protein [2]: 67.6 nM

GUUCGGGCAGGAUAUACAUGAGGAUCACCCAUGUGUGUCCAUACGCGUGAGUCUUCGUGUAGAAGGGUUUGGGC [-30.5, -27.8 kcal, 20% A] (Eterna round: R97, puzzle: Exclusion 3)
apparent KD of MS2 coat protein (input ligand: FMN 200 uM): 27.3 nM
apparent KD of MS2 coat protein (input ligand: none): 21.1 nM

GUUGACGGAGGAUAUACAGCCGAGAUCCACCGUGUGGAGGAACAUGAGGAUCACCCAUGUAGAAGGCUGCAGUA [Eternabot (L2) Solution 92] (Eterna round: R97, puzzle: Exclusion 2)
apparent KD of MS2 coat protein (input ligand: FMN 200 uM): 16 nM
apparent KD of MS2 coat protein (input ligand: none): 17.1 nM

GUUGCAAGCACUUACGUUGACAUGAGGAUCACCCAUGUAGCAUCUCCGCCAAUCUAAGCCGUUGUCUUAUAUACCUU [Eternabot (L2) Solution 3] (Eterna round: R97, puzzle: Sensor, turn-off variant 1)
apparent KD of MS2 coat protein (input ligand: FMN 200 uM): 34.5 nM
apparent KD of MS2 coat protein (input ligand: none): 51.7 nM

GUUGGUAAGUCAGGAUAUCCCUGUAAUGGCAGCGGAGAAGGGACAUGAGGAUCACCCAUGUGAACCUCCGGCGGGUAAACCCGC [Issoange] (Eterna round: R96, puzzle: Exclusion NG 1)
apparent KD of MS2 coat protein (input ligand: FMN 200 uM): 103 nM
apparent KD of MS2 coat protein [1]: 20.5 nM
apparent KD of MS2 coat protein (input ligand: none): 37.1 nM

GUUGUUUAUGUAGGAUAUGCCUGGCGAGCCUAAGCAGAAGGACAUGAGGAUCACCCAUGUAUUGCGGUCUGCGUUCAGAUCGCU [salish99_ExNG1_r4_018] (Eterna round: R96, puzzle: Exclusion NG 1)
apparent KD of MS2 coat protein (input ligand: FMN 200 uM): 38.3 nM
apparent KD of MS2 coat protein [1]: 9.94 nM
apparent KD of MS2 coat protein (input ligand: none): 18.9 nM

GUUGUUUAUGUAGGAUAUGCCUGGCGUGCCUAUGCAGAAGGACAUGAGGAUCACCCAUGUAUUGCGGUCUGCGUUCAGAUCGCU [salish99_ExNG1_r4_020] (Eterna round: R96, puzzle: Exclusion NG 1)
apparent KD of MS2 coat protein (input ligand: FMN 200 uM): 23.2 nM
apparent KD of MS2 coat protein [1]: 15.8 nM
apparent KD of MS2 coat protein (input ligand: none): 22 nM

GUUUCGAGACGGAGAUCCGACAUGAGGAUCACCCAUGUCUCCCAAGCUUUUUGCUCGUCUUAUACUCCUCUGUUCUC [Elimod 47 - Jieux - Sensor, turn-off variant 1] (Eterna round: R97, puzzle: Sensor, turn-off variant 1)
apparent KD of MS2 coat protein (input ligand: FMN 200 uM): 18 nM
apparent KD of MS2 coat protein (input ligand: none): 19.4 nM

GUUUGACAUGAGGAUCACCCAUGUAAGGAUAUACGAGUAGCUACUAGGUAGUUAGUAUGUAGAAGGUACGUGUU [EX1 #65] (Eterna round: R97, puzzle: Exclusion 1)
apparent KD of MS2 coat protein (input ligand: FMN 200 uM): 50.4 nM
apparent KD of MS2 coat protein (input ligand: none): 40.3 nM

GUUUUCAGACGGAGAUCCUACAUGAGGAUCACCCAUGUCUCACAAGCUUUUUGCUCGUCUUAUUCUCCUCUGUUCUC [Elimod 41 - Jieux - Sensor, turn-off variant 1] (Eterna round: R97, puzzle: Sensor, turn-off variant 1)
apparent KD of MS2 coat protein (input ligand: FMN 200 uM): 23.8 nM
apparent KD of MS2 coat protein (input ligand: none): 26.1 nM
